Common to all, as to assay: microscale thermophoresis
A general note: MST reads how a fluorescent partner responds to local heating, with and without ligand.

The target of assay [1] is T1, CaV1.1 AID peptide AID (UniProt Q13698, IPPQ present).
T1 chain: QQLDEDLRGYMSWITQGE

For assay [2], the target named is T2, CaV1.1 AID peptide AID (UniProt Q13698).
T2 chain: QQLDEDLRGYMSWITQGE

In assay [3] the target is T3, CaV2.1 AID peptide AID (UniProt O00555, IPPQ present).
T3 chain: QQIERELNGYMEWISKAE

Assay [4] addresses T4, CaV2.1 AID peptide AID (UniProt O00555).
T4 chain: QQIERELNGYMEWISKAE

Assay [5] has as its target T5, CaV2.2 AID peptide AID (UniProt Q00975, IPPQ present).
T5 chain: QQIERELNGYLEWIFKAE

For assay [6], the target named is T6, CaV2.2 AID peptide AID (UniProt Q00975).
T6 chain: QQIERELNGYLEWIFKAE

By Kd is commonly meant the free concentration of one partner at which half of the binding sites on the other are occupied at equilibrium, for simple one-to-one binding. Low values mean higher affinity, high ones lower affinity.

B1: CaVβ2 (protein)
chain: not shown
B1: the equilibrium dissociation constant (Kd) turned out to be 51 nM with CaV1.1 AID peptide AID [1]; 24 nM with CaV1.1 AID peptide AID [2]; 93 nM in the assay with CaV2.1 AID peptide AID [3]; 18.3 nM with CaV2.1 AID peptide AID [4]; 208 nM in the assay with CaV2.2 AID peptide AID [5]; 12 nM in the assay with CaV2.2 AID peptide AID [6].

For the origin of these results see PMC8998802 (2019).
